Measured values: publication PMC11033290
Several values for one entry are separate records, joined by “and”; a condition that tells them apart may be missing. Identical values can stand only once.

Biological target: Recombinant M. tuberculosis MDP1 (Mycobacterial DNA-binding protein 1) produced in Mycolicibacterium (Mycobacterium tuberculosis) (UniProt P9WMK7)
Experiment: cross-linking; glutaraldehyde 0.2%, room temperature, 30 min; 4 µM or 8 µM protein in 150-1500 mM NaCl; SDS-PAGE on a 4-15% gradient gel

In the case of “Recombinant M. tuberculosis MDP1 (Mycobacterial DNA-binding protein 1) produced in Mycolicibacterium (from UniProt P9WMK7 3-216) (natural protein)”, the stoichiometry N is reported as 2 and 3.
